Results published in patent US20080119384A1 (Janssen / Centocor, published 2008).
Non-standard residues stand in square brackets, D forms with d. No end group written: not given here. MPEG = methoxypoly(ethylene glycol), ~20,000 Da; 2Nal = N[C@@H](Cc1ccc2ccccc2c1)C(=O)O; Sar = CNCC(=O)O

Target: T1, human TPO receptor, c-mpl (hTPOr) (human, UniProt P40238 26-635)
T1 sequence (looked up): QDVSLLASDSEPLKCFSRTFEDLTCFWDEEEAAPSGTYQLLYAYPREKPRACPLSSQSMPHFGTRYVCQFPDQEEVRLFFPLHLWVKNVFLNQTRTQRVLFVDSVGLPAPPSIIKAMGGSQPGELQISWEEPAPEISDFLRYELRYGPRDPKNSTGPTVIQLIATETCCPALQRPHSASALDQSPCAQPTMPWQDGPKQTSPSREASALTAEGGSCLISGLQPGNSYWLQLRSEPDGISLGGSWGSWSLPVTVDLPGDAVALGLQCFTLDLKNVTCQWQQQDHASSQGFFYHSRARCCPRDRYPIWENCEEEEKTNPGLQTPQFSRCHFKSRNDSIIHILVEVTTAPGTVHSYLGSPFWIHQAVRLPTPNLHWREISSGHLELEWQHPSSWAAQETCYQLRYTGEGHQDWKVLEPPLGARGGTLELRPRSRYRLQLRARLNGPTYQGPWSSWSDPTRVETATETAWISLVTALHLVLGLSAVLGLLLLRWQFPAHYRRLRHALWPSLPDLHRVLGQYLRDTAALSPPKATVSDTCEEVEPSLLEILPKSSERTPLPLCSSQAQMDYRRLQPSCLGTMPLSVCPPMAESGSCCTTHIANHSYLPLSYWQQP
Experiment: cell-based or functional assay

B1: PEGylated TPO Compound No. 1 (peptide)
peptide: {MPEG}-IEGPTLRQ[2Nal]LAAR[Sar]K[Sar]RAAL[2Nal]QRLTPGEI
modifications: not fully specified (C-terminus); printed as (MPEG-Ile-Glu-Gly-Pro-Thr-Leu-Arg-Gln-(2-Nal)-Leu-Ala-Ala-Arg-(Sar))2-Lys-NH2; also: branched dimer: two 14-mers joined at their C-termini to Lys alpha and epsilon amines, residues 16-29 written C→N, Ile29 is the second N-terminus bearing MPEG, Lys C-terminal amide (lysinamide)
- EC50, luciferase reporter (fos promoter) in Baf/3 cells expressing human TPO-R: ~5 pM
